From publication doi:10.1101/2020.04.20.051433

Target: Cpn60 (chloroplast chaperonin) of pea stroma (P. sativum (endogenous in pea chloroplasts))
Experiment: native gel or EMSA

reduction of the 700-kDa band against full-length Plsp1: 80%
Substance: Plsp1 Δβ1-2 imported into isolated chloroplasts (from UniProt Q8H0W1 68-291) (domain or fragment)
